In this experiment the target is Flag-ACKR3-RlucII (human) (UniProt P25106). Particulars: scale: log EC50.
Flag-ACKR3-RlucII (human), sequence (P25106 whole entry): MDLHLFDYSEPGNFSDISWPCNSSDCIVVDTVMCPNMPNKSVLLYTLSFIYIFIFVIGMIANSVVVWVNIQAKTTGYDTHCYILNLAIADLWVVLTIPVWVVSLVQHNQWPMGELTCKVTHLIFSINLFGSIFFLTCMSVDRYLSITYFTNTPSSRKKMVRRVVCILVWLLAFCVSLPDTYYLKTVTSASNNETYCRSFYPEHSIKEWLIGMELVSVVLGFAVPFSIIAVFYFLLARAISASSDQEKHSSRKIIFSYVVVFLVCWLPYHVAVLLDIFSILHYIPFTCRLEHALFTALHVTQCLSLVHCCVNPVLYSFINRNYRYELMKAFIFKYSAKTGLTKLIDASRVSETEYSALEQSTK

Take “wild-type CXCL12 (CXCL12WT) (from UniProt P48061 22-93) (ligand)”: the log EC50 of GFP10–β-arrestin 2 recruitment to ACKR3-RlucII (BRET) as a function of CXCL12WT, with 2 μM CID25 was -8.89 and the log EC50 of GFP10–β-arrestin 2 recruitment to ACKR3-RlucII (BRET) as a function of CXCL12WT, without CID25 was -8.87.
